Experimental data from patent US7094873 (University of Texas, dated 2006).

Tests used:
[1] = target: SV40 large T antigen (negative control protein, Clontech) (SV40, UniProt P03070 84-708); assay: yeast two-hybrid
[2] = target: T1, Human Hsp70 (Stressgen) (human, UniProt P0DMV8 1-641); assay: cell-based or functional assay
[3] = target: T2, GST-Hsc70 (amino acid residues 1-540) (UniProt P11142 1-540); assay: GST-Hsc70 deletion mutants on beads with 35S-labeled hCHIP, autoradiography
T2 construct: range 1-540; From E. Ungewickell; also called pGEXHsc70 (1-540); not shown: glutathione S-transferase (GST) of a pGEX vector

[4] = target: T3, Human Hsp40 (Stressgen) (human, UniProt P25685 1-340); assay: GST pulldown on glutathione-Sepharose beads, immunoblot
T3 construct: also called co-chaperone Hsp40

[5] = target: T4, Bovine Hsc70 (Stressgen) (bovine, UniProt P19120 2-650); assay: GST-hCHIP fragments, in vitro binding assay, immunoblot
T4 construct: also called purified Hsc70

[6] = target: T1, Human Hsp70 (Stressgen); assay: as above
[7] = target: T5, Fragments of Hsp70 in frame with the GAL4 activation domain (three prey clones, human heart cDNA library in … (human, UniProt P0DMV8 417-641, limits assumed)); assay: yeast two-hybrid
T5 construct: domain: carboxyl terminus; Three clones treated as one molecule

[8] = target: T6, Fragments of Hsc70 in frame with the GAL4 activation domain (five prey clones, human heart cDNA library in … (human, UniProt P11142 394-646, limits assumed)); assay: yeast two-hybrid
T6 construct: domain: carboxyl terminus
T6 sequence (P11142 394-646 limits assumed): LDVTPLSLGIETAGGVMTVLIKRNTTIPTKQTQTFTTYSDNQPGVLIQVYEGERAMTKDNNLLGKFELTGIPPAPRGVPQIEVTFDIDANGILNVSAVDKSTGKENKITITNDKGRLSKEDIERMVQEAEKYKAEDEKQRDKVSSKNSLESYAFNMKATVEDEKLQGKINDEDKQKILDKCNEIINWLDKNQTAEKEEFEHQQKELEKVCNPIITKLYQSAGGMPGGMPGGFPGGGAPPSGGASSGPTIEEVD

T1 sequence (P0DMV8 whole entry, the tested form may be a part): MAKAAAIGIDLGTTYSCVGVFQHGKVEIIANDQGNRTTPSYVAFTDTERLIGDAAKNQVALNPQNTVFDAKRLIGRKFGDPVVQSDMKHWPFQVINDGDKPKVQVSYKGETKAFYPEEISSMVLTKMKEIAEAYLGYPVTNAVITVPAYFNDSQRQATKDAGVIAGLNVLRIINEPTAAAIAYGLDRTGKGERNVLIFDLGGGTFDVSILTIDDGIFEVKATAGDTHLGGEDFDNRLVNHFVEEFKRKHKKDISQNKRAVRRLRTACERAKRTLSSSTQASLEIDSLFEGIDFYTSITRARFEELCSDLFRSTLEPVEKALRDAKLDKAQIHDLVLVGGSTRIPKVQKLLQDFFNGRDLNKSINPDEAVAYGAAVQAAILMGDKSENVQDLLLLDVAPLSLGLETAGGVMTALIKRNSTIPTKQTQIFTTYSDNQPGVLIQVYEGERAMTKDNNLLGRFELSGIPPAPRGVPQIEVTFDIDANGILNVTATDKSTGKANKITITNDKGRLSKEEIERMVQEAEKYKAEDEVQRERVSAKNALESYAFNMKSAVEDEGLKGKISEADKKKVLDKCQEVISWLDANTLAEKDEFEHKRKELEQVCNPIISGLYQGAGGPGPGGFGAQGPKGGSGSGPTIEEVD
T4 sequence (P19120 2-650 limits assumed): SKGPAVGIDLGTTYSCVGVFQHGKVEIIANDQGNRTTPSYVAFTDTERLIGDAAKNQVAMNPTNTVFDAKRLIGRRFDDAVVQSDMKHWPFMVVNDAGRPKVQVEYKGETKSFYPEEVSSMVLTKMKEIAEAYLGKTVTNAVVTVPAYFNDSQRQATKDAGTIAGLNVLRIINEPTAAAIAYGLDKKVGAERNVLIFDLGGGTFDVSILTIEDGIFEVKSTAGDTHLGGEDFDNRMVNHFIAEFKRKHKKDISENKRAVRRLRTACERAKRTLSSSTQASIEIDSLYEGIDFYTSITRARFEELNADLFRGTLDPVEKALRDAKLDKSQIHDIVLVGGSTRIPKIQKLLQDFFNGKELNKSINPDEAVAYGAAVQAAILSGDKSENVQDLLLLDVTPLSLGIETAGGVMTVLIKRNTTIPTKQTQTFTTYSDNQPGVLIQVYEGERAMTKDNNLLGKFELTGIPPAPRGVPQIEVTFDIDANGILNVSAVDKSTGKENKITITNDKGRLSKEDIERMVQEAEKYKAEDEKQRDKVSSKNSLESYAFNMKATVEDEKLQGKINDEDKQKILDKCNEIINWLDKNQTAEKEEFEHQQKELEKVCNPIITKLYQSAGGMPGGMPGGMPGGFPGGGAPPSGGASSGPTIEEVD
T2 sequence (P11142 1-540): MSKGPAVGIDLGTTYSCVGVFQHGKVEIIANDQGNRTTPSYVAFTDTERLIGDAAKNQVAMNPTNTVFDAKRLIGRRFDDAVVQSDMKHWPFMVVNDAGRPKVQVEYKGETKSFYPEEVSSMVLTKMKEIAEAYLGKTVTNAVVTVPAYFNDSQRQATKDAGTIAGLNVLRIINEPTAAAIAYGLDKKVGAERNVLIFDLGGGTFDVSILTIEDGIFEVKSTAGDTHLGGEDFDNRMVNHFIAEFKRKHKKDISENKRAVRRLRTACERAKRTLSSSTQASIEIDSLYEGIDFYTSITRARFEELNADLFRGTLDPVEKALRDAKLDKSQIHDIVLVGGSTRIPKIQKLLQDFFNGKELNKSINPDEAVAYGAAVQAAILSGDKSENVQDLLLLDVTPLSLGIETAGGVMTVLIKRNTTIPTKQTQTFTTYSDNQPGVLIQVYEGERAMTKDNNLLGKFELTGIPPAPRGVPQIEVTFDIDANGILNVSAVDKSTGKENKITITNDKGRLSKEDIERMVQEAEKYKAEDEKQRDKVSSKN
SV40 large T antigen (negative control protein, Clontech), sequence (P03070 84-708 limits assumed): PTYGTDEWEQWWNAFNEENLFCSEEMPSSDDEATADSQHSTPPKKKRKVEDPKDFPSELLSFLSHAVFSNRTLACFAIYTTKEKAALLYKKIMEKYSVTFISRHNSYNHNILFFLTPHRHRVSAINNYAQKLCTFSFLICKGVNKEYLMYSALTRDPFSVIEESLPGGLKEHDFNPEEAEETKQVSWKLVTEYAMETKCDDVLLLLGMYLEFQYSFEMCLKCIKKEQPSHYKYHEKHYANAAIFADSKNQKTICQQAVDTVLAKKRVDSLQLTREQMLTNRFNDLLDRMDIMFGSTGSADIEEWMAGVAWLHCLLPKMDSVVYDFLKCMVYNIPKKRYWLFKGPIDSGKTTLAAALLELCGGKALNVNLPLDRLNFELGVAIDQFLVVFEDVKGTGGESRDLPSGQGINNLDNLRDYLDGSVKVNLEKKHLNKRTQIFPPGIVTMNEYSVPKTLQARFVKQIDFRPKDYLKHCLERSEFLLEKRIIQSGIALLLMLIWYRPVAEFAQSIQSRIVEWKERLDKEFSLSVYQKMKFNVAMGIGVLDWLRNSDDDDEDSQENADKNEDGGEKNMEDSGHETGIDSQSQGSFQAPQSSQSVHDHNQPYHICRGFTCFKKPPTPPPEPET
T5 sequence (P0DMV8 417-641 limits assumed): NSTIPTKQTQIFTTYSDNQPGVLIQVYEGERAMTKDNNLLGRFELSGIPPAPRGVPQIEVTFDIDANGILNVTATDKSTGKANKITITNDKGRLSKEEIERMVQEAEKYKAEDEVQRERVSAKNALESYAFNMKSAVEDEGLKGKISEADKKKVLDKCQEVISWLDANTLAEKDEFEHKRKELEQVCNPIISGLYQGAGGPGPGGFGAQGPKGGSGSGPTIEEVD
T3 sequence (P25685 whole entry): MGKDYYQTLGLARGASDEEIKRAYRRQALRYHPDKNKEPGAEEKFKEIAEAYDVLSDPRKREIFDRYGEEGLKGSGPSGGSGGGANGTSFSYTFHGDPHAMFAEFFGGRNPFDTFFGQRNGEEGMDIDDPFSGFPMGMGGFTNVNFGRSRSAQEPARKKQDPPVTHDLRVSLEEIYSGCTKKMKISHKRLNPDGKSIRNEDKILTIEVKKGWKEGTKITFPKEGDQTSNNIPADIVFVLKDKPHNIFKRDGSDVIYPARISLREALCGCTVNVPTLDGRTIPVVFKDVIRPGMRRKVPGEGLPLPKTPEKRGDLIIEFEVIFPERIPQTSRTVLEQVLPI

B1: Full-length hCHIP fused to the GAL4 DNA-binding domain (bait, plasmid pAS2-1) (other)
chain: MKLLSSIEQACDICRLKKLKCSKEKPKCAKCLKNNWECRYSPKTKRSPLTRAHLTEVESRLERLEQLFLLIFPREDLDMILKMDSLQDIKALLTGLFVQDNVNKDAVTDRLASVETDMPLTLRQHRISATSSSEESSNKGQRQLTVSMKGKEEKEGGARLGAGGGSPEKSPSAQELKEQGNRLFVGRKYPEAAACYGRVITRNPLVAVYYTNRALCYLKMQQHEQALADCRRALELDGQSVKAHFFLGQCQLEMESYDEAIANLQRAYSLAKEQRLNFGDDIPSALRIAKKKRWNSIEERRIHQESELHSYLSRLIAAERERELEECQRNHEGDEDDSHVRAQQACIEAKHDKYMADMDELFSQVDEKRKKRDIPDYLCGKISFELMREPCITPSGITYDRKDIEEHLQRVGHFDPVTRSPLTQEQLIPNLAMKEVIDAFISENGWVEDY
notes: Expressed in yeast strain CG-1945
B1: no binding [1].

B2: Recombinant hCHIP (His-tagged fusion from plasmid pET-hCHIP, expressed in E. coli BL21) (other, not shown: small tags and cut ends)
chain: MKGKEEKEGGARLGAGGGSPEKSPSAQELKEQGNRLFVGRKYPEAAACYGRVITRNPLVAVYYTNRALCYLKMQQHEQALADCRRALELDGQSVKAHFFLGQCQLEMESYDEAIANLQRAYSLAKEQRLNFGDDIPSALRIAKKKRWNSIEERRIHQESELHSYLSRLIAAERERELEECQRNHEGDEDDSHVRAQQACIEAKHDKYMADMDELFSQVDEKRKKRDIPDYLCGKISFELMREPCITPSGITYDRKDIEEHLQRVGHFDPVTRSPLTQEQLIPNLAMKEVIDAFISENGWVEDY
B2 was tested, and the “luciferase refolding: decrease of the folding activity of Hsp70” value [2] was 65% and the “luciferase refolding: decrease of the folding activity of Hsp70/Hsp40” value [2] was 64%.

B3: 35S-labeled, in vitro translated hCHIP (43-kD S-tagged fusion from vector pCITE-4a) (other)
chain: MKGKEEKEGGARLGAGGGSPEKSPSAQELKEQGNRLFVGRKYPEAAACYGRVITRNPLVAVYYTNRALCYLKMQQHEQALADCRRALELDGQSVKAHFFLGQCQLEMESYDEAIANLQRAYSLAKEQRLNFGDDIPSALRIAKKKRWNSIEERRIHQESELHSYLSRLIAAERERELEECQRNHEGDEDDSHVRAQQACIEAKHDKYMADMDELFSQVDEKRKKRDIPDYLCGKISFELMREPCITPSGITYDRKDIEEHLQRVGHFDPVTRSPLTQEQLIPNLAMKEVIDAFISENGWVEDY
modifications: 35S-methionine labeled
notes: Made in rabbit reticulocyte lysate; not shown: S-tag and vector-encoded residues of pCITE-4a
B3: no binding [3].

B4: GST-hCHIP fusion protein (amino acid residues 1-303) (other)
chain: MKGKEEKEGGARLGAGGGSPEKSPSAQELKEQGNRLFVGRKYPEAAACYGRVITRNPLVAVYYTNRALCYLKMQQHEQALADCRRALELDGQSVKAHFFLGQCQLEMESYDEAIANLQRAYSLAKEQRLNFGDDIPSALRIAKKKRWNSIEERRIHQESELHSYLSRLIAAERERELEECQRNHEGDEDDSHVRAQQACIEAKHDKYMADMDELFSQVDEKRKKRDIPDYLCGKISFELMREPCITPSGITYDRKDIEEHLQRVGHFDPVTRSPLTQEQLIPNLAMKEVIDAFISENGWVEDY
notes: also called GST-CHIP; not shown: glutathione S-transferase (GST) encoded by vector pGEX KG
B4: no binding [4]; binds [5].

B5: GST-hCHIP fusion protein (amino acid residues 1-197) (other)
chain: MKGKEEKEGGARLGAGGGSPEKSPSAQELKEQGNRLFVGRKYPEAAACYGRVITRNPLVAVYYTNRALCYLKMQQHEQALADCRRALELDGQSVKAHFFLGQCQLEMESYDEAIANLQRAYSLAKEQRLNFGDDIPSALRIAKKKRWNSIEERRIHQESELHSYLSRLIAAERERELEECQRNHEGDEDDSHVRAQQ
notes: TPR domains plus the adjacent charged domain; also called GST construct 4; not shown: glutathione S-transferase (GST) encoded by vector pGEX KG
B5: binds [5]; binds [6].

B6: lamin C (negative control, yeast two-hybrid) (other, UniProt P02545-2 66-230, looked up)
chain: SEEVVSREVSGIKAAYEAELGDARKTLDSVAKERARLQLELSKVREEFKELKARNTKKEGDLIAAQARLKDLEALLNSKEAALSTALSEKRTLEGELHDLRGQVAKLEAALGEAKKQLQDEMLRRVDAENRLQTMKEELDFQKNIYSEELRETKRRHETRLVEID
B6: no binding [7]; no binding [8].

B7: GST-hCHIP fusion protein (amino acid residues 1-142) (other)
chain: MKGKEEKEGGARLGAGGGSPEKSPSAQELKEQGNRLFVGRKYPEAAACYGRVITRNPLVAVYYTNRALCYLKMQQHEQALADCRRALELDGQSVKAHFFLGQCQLEMESYDEAIANLQRAYSLAKEQRLNFGDDIPSALRIA
notes: Contains the three TPR domains; also called GST construct 2; not shown: glutathione S-transferase (GST) encoded by vector pGEX KG
B7: no binding [5]; no binding [6].
